For experiment [1], the target named is T1, human 4-1BB-Fc protein (Sino Biological) (human, UniProt Q07011 24-186).
T1 construct: Bought protein; not shown: Fc part of the bought fusion protein
As to the kind of experiment: ELISA, plate coated with human 4-1BB-Fc, detection with anti-human IgG-HRP.

Experiment [2] has as its target T2, human 4-1BB expressed on GloResponse NFκB-luc2/4-1BB Jurkat cells (Promega) (human, UniProt Q07011 24-255). Kind of experiment: cell-based or functional assay.
Experiment [3] concerns the target T2, human 4-1BB expressed on GloResponse …. As to the kind of experiment: cell-based or functional assay. This is another data set of the same source.

Here are results for three molecules from patent US20250066487A1 (ABL BIO, published 2025).

T2 sequence (Q07011 24-255 limits assumed): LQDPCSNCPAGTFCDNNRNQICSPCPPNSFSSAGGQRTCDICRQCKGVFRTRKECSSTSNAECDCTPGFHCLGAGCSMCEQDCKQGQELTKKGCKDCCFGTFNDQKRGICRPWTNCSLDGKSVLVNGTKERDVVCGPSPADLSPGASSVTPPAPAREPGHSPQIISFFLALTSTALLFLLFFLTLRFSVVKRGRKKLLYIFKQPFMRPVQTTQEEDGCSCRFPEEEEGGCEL
T1 sequence (Q07011 24-186 limits assumed): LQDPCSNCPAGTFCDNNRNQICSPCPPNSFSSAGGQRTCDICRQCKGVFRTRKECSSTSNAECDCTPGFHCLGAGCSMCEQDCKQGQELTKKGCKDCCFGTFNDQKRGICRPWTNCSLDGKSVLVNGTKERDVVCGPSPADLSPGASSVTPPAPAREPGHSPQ

B1: 1A12 (antibody, human IgG4 S228P, lambda, V domains shown)
VH: EVQLLESGGGLVQPGGSLRLSCAASGFTFSGYDMSWVRQAPGKGLEWVSVIYPDDGNTYYADSVKGRFTISRDNSKNTLYLQMNSLRAEDAAVYYCAKHGGQKPTTKSSSAYGMDGWGQGTLVTVSS
VL: QSVLTQPPSASGTPGRRVTISCSGSSSNIGNNYVTWYQQLPGTAPKLLIYADSHRPSGVPDRFSGSKSGTSASLAISGLRSEDEADYYCATWDYSLSGYVFGGGTKLTVLG
notes: Full-length IgG form; also called 1Al2; anti-4-1BB antibody 1A12 (full-length IgG form)
For the molecule B1, the response in experiment [1] was half-maximal at 0.18 nM (EC50).

B2: AB41 (antibody, human IgG4 S228P, kappa, V domains shown)
VH: QVQLQQSGAEVIKPGASVKLSCKASGYTFSSYWMHWVRQAPGQGLEWIGEINPGNGHTNYNEKFKSRATLTGDTSTSTVYMELSSLRSEDTAVYYCARSFTTARAFAYWGQGTLVTVSS
VL: DIVMTQSPAFLSVTPGEKVTITCRASQTISDYLHWYQQKPDQAPKLLIKYASQSISGIPSRFSGSGSGTDFTFTISSLEAEDAATYYCQDGHSFPPTFGQGTKLEIKR
notes: Full-length IgG form; also called anti-4-1BB antibody AB41 (full-length IgG form)
Take B2: a half-maximal response in experiment [1] (EC50) required 0.2 nM.

B3: Urelumab (antibody, V domains shown)
VH: QVQLQQWGAGLLKPSETLSLTCAVYGGSFSGYYWSWIRQSPEKGLEWIGEINHGGYVTYNPSLESRVTISVDTSKNQFSLKLSSVTAADTAVYYCARDYGPGNYDWYFDLWGRGTLVTVSS
VL: EIVLTQSPATLSLSPGERATLSCRASQSVSSYLAWYQQKPGQAPRLLIYDASNRATGIPARFSGSGSGTDFTLTISSLEPEDFAVYYCQQRSNWPPALTFGGGTKVEIK
On to B3, for which, in experiment [2], the “EC50, FcγRIIb-independent 4-1BB bioassay” value was 0.537 nM and the “Fold of induction (RLU), FcγRIIb-independent 4-1BB bioassay” value is 14.1 fold (RLU). Moreover, in experiment [3], the “EC50, FcγRIIb-dependent 4-1BB bioassay” value was 0.239 nM and the “Fold of induction (RLU), FcγRIIb-dependent 4-1BB bioassay” value is 190 fold (RLU).
